According to the nanobody polyreactivity screen of Harvey et al. (2022):

Assay: yeast display, Sf9 membrane polyspecificity reagent, FACS + sequencing; frameworks hold sequencing errors
Summary of the method: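 A nanobody's polyreactivity label depends on the gate it was sorted from. Yeast display cells were stained with 10% biotinylated, detergent-solubilized Sf9 membrane reagent for 1 hour at 4 °C, enriched on streptavidin microbeads and sorted by FACS. The low and high (top ~1%) gates were set on anti-HA fluorescence for expression and streptavidin fluorescence for reagent binding.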

Q: With “QFQLVESGGGLVQAGGSLRLSCAASGRTFGVYAMGWYRQAPGKERELVAAIRWSGGGTYYADSVKGRFTISRDNAKNTVYLQMNSLKPEDTAVYYCAADSLLVLFDYWGQGTQVTVSA” as the sequence, how does the “polyreactivity (PSR sort gate)” value read?
A: low polyreactivity

Q: Which “polyreactivity (PSR sort gate)” value does the source give for “QVQLVESGGGLVQEGGSLRLSCAASGTFYDYVMGLYRPAPGKERELVATISDNDGSTYYADSVKGRFTISRDNAKNTVYLQKNSLKPEDTALYYCNAGRTWPIVADYSWLSYGSWGQGTQVTVSS” here?
A: high polyreactivity

Q: For “QVQLVESGGGLVPAGGSLRLSCAASGSTFVGNAMGWYRQAPGKERELVAAISSGGSTNYADSVKGRFTISRDNAKNTVYLQMNSLKPEDTAVYYCNAVYFYWLYGFSYFATGITYDYWGQGTQVTVSS”, which “polyreactivity (PSR sort gate)” value is on record?
A: high polyreactivity

Q: Which “polyreactivity (PSR sort gate)” value does the source give for “QVQLVESGGGLVQAGGSLRLSCAASGRTFPTYAMGWDRQAPGKERELVAAITTSGGSTYADSVMGRFTISRDNAKNTVYLQMNSLKPEDTAVYYCATRSFYGGYYYSSGSEFDYWGQGTQVTVSS” here?
A: low polyreactivity

Q: Which “polyreactivity (PSR sort gate)” value does the source give for “QDQLVDSGGGLVQAGGSLRLSCAASGSIFPIYAMGGYRQAPGKERELVAAIDWGDGSTSYADSVKGRFTISRDNAKNTVYLQMNSLKPEDTAVYYCAARSVFDLVYYNLIFDYWGQGTQVTVSS” here?
A: high polyreactivity

Q: Which “polyreactivity (PSR sort gate)” value does the source give for “QVQLVESGGGLVQAGGSLRLSCAASGRTFQNNAMGWYRQAPGKERELVAAISWRGTSTYYADSVKGRFTISRDNANNTVYLQMNSLKPEDTAVYYCAAYPKYGFEFKYGYWGQGTQVTVSS” here?
A: high polyreactivity

Q: With “QVQLVESGGGLVQAGGSLRLSCAASGRTFGRNAMGWYRQAPGKERELVAAINGNGGRTSYADSVKGRFTISRDNAKNTVYLPMNSLKPEDTAVYYCNKYTPGWYRYYYWGQGTQVTVSS” as the sequence, how does the “polyreactivity (PSR sort gate)” value read?
A: high polyreactivity

Q: For “QVQLVESGGGLVQAGGSLRLSCAASGRIFRFYAMGWYRPAPGKERELVAAISWNGGRTYYAVSVKGRFTISRDNAKNTVYLQMNSLKPEVTAVYYCATEFYYHWYSPFDYWGQGTQVTVSS”, which “polyreactivity (PSR sort gate)” value is on record?
A: high polyreactivity

Q: With “QVQLVESGGGLVQAGGSLRLSCAASGSTFGFNAKGWYRKAPGKERELFAAIDKSGDRHYYADSVKGRFTISRDNAKNSVYLQMNSLKTVDTAVYYCAGDIPFYRYEYWGQGTQVTVSS” as the sequence, how does the “polyreactivity (PSR sort gate)” value read?
A: high polyreactivity

Q: Which “polyreactivity (PSR sort gate)” value does the source give for “QVQLVESGGGLVQAGGSLRLSCAASGSTFYIYAMGAYRPAPGKERELVARISGSGGSTYYADSVKGRFTISRDNAKNTGYLQMNSLKPEDTAVYYCAADDIYKYYQYYAFPYYRYVYWGHGTQVTVSS” here?
A: low polyreactivity

Q: For “QVQLVESGGGLVQAGGSLRLSCAASGRTFTKYAMGWYRQAPGKERELVAGITRRGGNTYYADSVKGRFTISRDNAKNTVYLQMNSLKPEDTAVYYCAKGYDFLRYDYWGQGTQVTVSS”, which “polyreactivity (PSR sort gate)” value is on record?
A: high polyreactivity

Q: For “QVQLEESGGGLVQAGGSLRLSCAASGSTFGNYAKGWYRQAPGKERELVAAITATGGRTYYADSVKGRFTISRDNAKNTVYLQMNSVKPEDTAVYYCAAGYRTGGDSGDYWGQGTQVTVSS”, which “polyreactivity (PSR sort gate)” value is on record?
A: high polyreactivity

Q: For “QVQLVESGGGLVQAGGSLRLSCAASGRIFYLYAMGWYRQAPGKERELVAAITWSGGSTTYADSVKGRFTISRDNAKNTVYLQMNSLKPEDTAVYYCNADGWIFPSFSPMDYWGQGTQVTVSS”, which “polyreactivity (PSR sort gate)” value is on record?
A: low polyreactivity

Q: Which “polyreactivity (PSR sort gate)” value does the source give for “QVQLVESGGGLVQAGGSLRLSCAASGSTFPSYTMGWYRQAPGKERELVAAITLSGGSTYYADSVNGRFTISRDNAKYTVYLQMNSLKPSDTAVYYCAAYSQRGYYWGQGTQVTVSS” here?
A: low polyreactivity

Q: Which “polyreactivity (PSR sort gate)” value does the source give for “QVQLVESGGGLVQAGGSLRLSCAASGRTFRINAMGWYRQAPGKERELVAAINDGGDTYADSVKGRFTISRDNAKNTVYLQMNSLKPEDTAVYYCAVRILTNRWYYGYWGQGTQVTVSS” here?
A: low polyreactivity

Q: With “QVQLVESGGGLVQAGGSLRLSCAASGSTFGRYAMGWYRQAPGKERELVAAIDWSGGSTYYADSVKGRFTISRDNAKNTVYLQMNSLKPEDTAVYYCAAEAYSQYRTPGFDYYYWGQGTQVTVSS” as the sequence, how does the “polyreactivity (PSR sort gate)” value read?
A: high polyreactivity

Q: With “QVQLVESGGGLVQAGGSLRLSCAASGFIFYRNAMGWYRQAPGKERELVAGISRSGTRTYYADSVKGRFTISRDYSKNTVYLQMNSLKPEDTAVYYCAADRSLGYDYWGQGTQVTVSS” as the sequence, how does the “polyreactivity (PSR sort gate)” value read?
A: high polyreactivity

Q: For “QVQLVESGGGLVQAGGSLRLSCAASGRIFQWYAMGWYRQAPGKERELVAAISWRDGRTYYADSVKGRFTISRDNAKNNVYLQMNSLKPEDTAVYYCAVRTFGRYGYWGQGTQVTVSS”, which “polyreactivity (PSR sort gate)” value is on record?
A: high polyreactivity

Q: With “QVQLVESGGGLVQAGGSLRLISPASRFTFRYYAMGWYRQAPGKERELVAAISRGGTTNYADSVKGRFTISRDNAKNTVYLQMNSLKPEDTAVYYCATTRYDYWGQGTQVTVSS” as the sequence, how does the “polyreactivity (PSR sort gate)” value read?
A: high polyreactivity

Q: With “QVQLVESGGGLVQAGGSLRLSCAASGFIFLQYPMGWYRQAPGKERDLVAAITSGGGTNYADSVKGRFTISRDNAKNTVYLQMNSLKPEDTAVYYCAARTWPWVLGATQDDYWGQGTQVTVSS” as the sequence, how does the “polyreactivity (PSR sort gate)” value read?
A: low polyreactivity

Q: For “QVQLVESGGGLVQAGGSLRLSCAASGLIFSYSALAWYRQAPGKERELVGSMSTSGGNTNYADSVKGRFTISRDNAKNTVYVQMNSVKPVDTAVYYCAAGIGKQYHTGYPTAGRKYGYWGQGTQVTVSS”, which “polyreactivity (PSR sort gate)” value is on record?
A: high polyreactivity

Q: For “QVQLVESGGGLVQAGGSLRLSCDASGFTFSAYAMGWYRQAPGKERELVAAISTRGGSTRYADSVKGRFTISRDNAKNTVYLQMNSLKPEDTAVYYCADDTRSFYRYDYWGQGTQVTVSS”, which “polyreactivity (PSR sort gate)” value is on record?
A: high polyreactivity

Q: With “QVQLVESGGGLVQAGGSLRLSCAASGSIFPAYAMGWYRQAPGKERELVAASTDRGGSTSYADSVKGRFTISRDNAKNTVYLHKNSLKPEDT” as the sequence, how does the “polyreactivity (PSR sort gate)” value read?
A: low polyreactivity

Q: Which “polyreactivity (PSR sort gate)” value does the source give for “QVQLVESGGGLVQAGGSLRLSCAASGSIFGRYAMGWYRQAPGKERELVAAITFSGASTYYADSVKGRFTISRDNAKNTVYLQMNSLKPEDTAVYYCAADGGTIEGDYWGQGTQVTVSS” here?
A: low polyreactivity

Q: With “QVQLVESGGGLVQAGGSLRLSCAASGNIFNTYAMGWYRQAPGKERELVAVISSRCGRTYYADSVKGRFTISRENAKNTVYLQMNSLKPEDTAVYYCAAGKHVTFSYEYRMDYWGVGTQVTVSS” as the sequence, how does the “polyreactivity (PSR sort gate)” value read?
A: low polyreactivity

Q: Which “polyreactivity (PSR sort gate)” value does the source give for “QVQLVESGGGLVQAGGSLRLSCAASGSTFLNYALGWYRQAPGKERELVASISYSAGSTYYADSVKGRFTISRDNAKNTVYLQMNSLKPEDTAVYYCAARLARAGYWRRNYYYWGQGTQVTVSS” here?
A: high polyreactivity

Q: Which “polyreactivity (PSR sort gate)” value does the source give for “QVQLVESGGGLVQAGGSLRLSCAASGLTFSLYAMGWYRQAPGKERELVAAISWTGGSTYYADSVKGRFTISRDNAKNTVYLQMNSLKPEDTAVYYCNARYTLFARYCYDYWGQGPQVTVSS” here?
A: low polyreactivity

Q: For “QVQLVESGGGLVQAGGSLRLSCAASGRIIYGYAMGWYRQAPGKERELVAAISASGGRTYYADSVKGRFTISRDHAKNTVYLQMNSLKPEDTAVYYCAADDVGPPDFYYWGQGTQVTVSS”, which “polyreactivity (PSR sort gate)” value is on record?
A: high polyreactivity

Q: Which “polyreactivity (PSR sort gate)” value does the source give for “QVQLGESGGGLVQAGGSLRLSCAASGRIFAGYAMGWYRQAPGKERELVATISSGGSTYYADSVKGRFTISRDNAKNTVYLQMHSLKPEDTAVYYCAAEYATRQYSSYYNLFNYCGQGTQVTVSS” here?
A: low polyreactivity

Q: With “QDQLVESGGGLVQAGGSLRLSCAASGRIFSRNAMGWYRQAPGKERELVAAITWRGGSTYYADSVKGRFTISRDNAKNTVYLQMTSLKPEDTAVYYCNRDYRQYGYAYSGRYYWGLGTQVTVSS” as the sequence, how does the “polyreactivity (PSR sort gate)” value read?
A: high polyreactivity

Q: For “QVQLVESGVGLVQAGGSLRLSCAASGFIFNYNTMGWYRQAPGKERELVAAISSSGGSTYYADSVKGRFTISRDNAKNTVYLQMNSLKPEDTAVYYCAAGANAQRVPNGDYWGQGTQVTVSS”, which “polyreactivity (PSR sort gate)” value is on record?
A: low polyreactivity

Q: Which “polyreactivity (PSR sort gate)” value does the source give for “QVQLVESGGGLVQAGGSLRLSCAASGSTFNGNAMGWYRQAPGKERELVARISFDGTSTYYADSVKGRFTISRDNAKNTVYLQMNSLKPEDTAVDYCNVLFPRDHGFPGYGYWGQGTQVTVSS” here?
A: low polyreactivity

Q: For “QVQLVESGGGLVQAGGSLRLSCSASGRIFDKYTMGWYRQAPGKERELVATITRGGVSTYYADSVKGRFTISRDNAKNTVYLQMTSLKPEDTAVYYCNAVWRLRVRYGYWGQGTQVTVSS”, which “polyreactivity (PSR sort gate)” value is on record?
A: high polyreactivity

Q: Which “polyreactivity (PSR sort gate)” value does the source give for “QVQLVESGGGLVQAGGSLRLSCAASGSIFKFYAMGWYRQAPGKERELVAAISSSGTSTYYADSVKGRFTISRDNAKNTVYLQMNSLKPEDTAVYYCAARGGVQNEVKGSPYYYWGQGTQVTVSS” here?
A: high polyreactivity

Q: With “QVQLVESGGGLVQAGGSLRLSCAASGIIFGVYAMGWYRQAPGKERELVAAISWTGGSTFYADSVKGRFTISRDNAKITVYLQMNILKPEDTAVYYCAVDYWSGITWVEYWGQGTQVTVSS” as the sequence, how does the “polyreactivity (PSR sort gate)” value read?
A: high polyreactivity

Q: With “QVQLVESGGGLVQAGGSLRLSCAASGRTFRRYVMGWYRQAPGKERELVASITRGTGTDYADSVKGRFTISRDNAKNTVYLQMNSLKPEDTAVYYCNAEVKGFFYDYDYWGQGTQVTVSS” as the sequence, how does the “polyreactivity (PSR sort gate)” value read?
A: low polyreactivity

Q: For “QVQLVESGGGLVQAGGSLRLSCAASGSIFWPYAMGWYRQAPGKEREFVDAITWSGGSTYYADSVKGRFTISRDNAKNTVYLQMNSLKPEDTAVYYCAAVPYTRWKGADGDYWGQGTQVTVSS”, which “polyreactivity (PSR sort gate)” value is on record?
A: high polyreactivity

Q: For “QVQLVESGGGLVQAGGSLRLSCAASGRIFRGYTMGWYRQAPGKERELVAAISRSTGSTNYADSVKGRFTISRDNAKNTVYLQMNSLKPEDTAVYYCAATVSPSYDYWGQGTQVTVSS”, which “polyreactivity (PSR sort gate)” value is on record?
A: high polyreactivity

Q: For “QVQLQDSGGGLVQAGGSLRQRCAASGYISSLAAMGWYRQAPGKERDLVAGNDLGTITNYADSVKGSLTISRDNAKNTVYLQMNSLIPEDTAVYYCAPTWYYHYNDWKHWYEYGYWGQGTQVTVSS”, which “polyreactivity (PSR sort gate)” value is on record?
A: low polyreactivity

Q: For “QVQLVESGGGLVQAGGSLRLSCAASGRIFPYYAMGWYRQAPGKEWELVAAISSSSGSTYYADTVKGRFTISRDNAKNTVYLQMNSLKPEDTAVYYCAARKSWRYNIWSRNAYEDWGQGTQVTVSS”, which “polyreactivity (PSR sort gate)” value is on record?
A: high polyreactivity

Q: Which “polyreactivity (PSR sort gate)” value does the source give for “QVQLVESGGGLVQAGGSLRLSCAASGIIFSIYALGWYRPAAGKERELVAAITYSGGRTYYADSVKGRFTISRDNAKNSVYLQMNSLKPEDTAVYYCAAVGYGEYYWGQGTQVTVSS” here?
A: high polyreactivity

Q: For “QVQLVESGGGLVQAGGSLRLSCAASGNTFLYYSMGWYRQAPGKEMELVASINLSDGSTYYADSVKGRFTISRDNAKNTVYFQMNSLKPEDTAVYYCAAVYGGYTIYDYWGQGTQVTVSS”, which “polyreactivity (PSR sort gate)” value is on record?
A: low polyreactivity

Q: With “QVQLVESGGGLVQAGGSLRLSCAASGSIFPGYAMGWSRQAPGKERELVAAISTSGGSTYADSVKGRFTISRDNAKNTVYLQMNSLKPEDTAVYYCAATYTYTSPVYYSLDGPWPYDYWGQGTQVTVSS” as the sequence, how does the “polyreactivity (PSR sort gate)” value read?
A: low polyreactivity
